Results: patent US20090203580

How the values were obtained:
[1] = tested on: heat-inactivated alpha-1 antitrypsin
[2] = tested on: human alpha-1 antitrypsin (native, not heat-inactivated; clinical grade, e.g. Aralast)

elastase (e.g., Sigma), species not stated
elastase activity: hydrolysis of N-Succinyl-Ala-Ala-Ala-p-nitroanalide, absorbance at 410 nm [1]: combining HIAAT with elastase produced a curve similar to that of elastase alone
elastase activity: hydrolysis of N-Succinyl-Ala-Ala-Ala-p-nitroanalide, absorbance at 410 nm [2]: Combining native (NOT heat-inactivated) AAT ablated elastase processing of the N-Succinyl-Ala-Ala-Ala-p-nitroanalide substrate and blocked the increase in A410 nm
